Measured values as given in the RNAGym collection of RNA variant scans (doi:10.1073/pnas.2313332121).
Variants at the floor of the assay were thinned out.

B1: TPR 5TU (parent)
chain: GGAUCUUCUCGAUCUAACAAAAAAGACAAAUCUGCCACAAAGCUUGAGAGCAUCUUCGGAUGCAGAGGCGGCAGCCUUCGGUGGCGCGAUAGCGCCAACGUUCUCAACUAUGACACGCAAAACGCGUGCUCCGUUGAAUGGAGUUUAUCAUG

Variants of: B1
Experiment: polymerase ribozyme fitness, log enrichment relative to wild type (log ratio); higher = more active; in vitro selection for triplet polymerase activity
In short: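 Mutant libraries were PCR-built and transcribed for each subunit of a heterodimeric triplet polymerase ribozyme and selected for one round in triplicate at −7 °C, frozen, before gel excision of extended constructs and streptavidin-bead capture. Input and output libraries were Illumina-sequenced, keeping genotypes with ≥10 input reads and ≥1 read per output. Fitness is a logarithmic ratio of genotype to wild-type enrichment, in base 2, using inverse-variance-weighted replicate averages.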

Going from GGAUCUUCUCGAUCUAACAAAAAAGACAAAUCUGCCACAAAGCUUGAGAGCAUCUUCGGAUGCAGAGGCGGCAGCCUUCGGUGGCGCGAUAGUGCCAACGUUCUCAACUAUGAUACGCAAAACGCGUGCUCCGUUGAAUGGAGUUUAUCAUG to GGAUCUUCUCGAUCUAACAAAAAAGACAAAUCUGCCACAAAGCUUGAGAGCAUCUUCGGAUGCAGAGGCGGCAGCCUUCGGUGGCGCGAUAGUGCCAACGUUCUCAACUAUGACACGCAAAACGCGUGCUCCGUUGAAUGGAUUUUAUCAUG, the “polymerase ribozyme fitness (log ratio)” value falls from -2.54 to -3.38.

Going from GGAUCUUCUCGAUCUAACAAAAAAGACAAAUCUGCCACAAAGCUUGAGAGCAUCUUCGGAUGCAGAGGCGGCAGCCUUCGGUGGCGCGAUAGUGCCAACGUUCUCAACUAUGACACGCAAAAUGCGCGCUCCGUCGAAUGGAGUUUAUCAUG to GGAUCUUCUCGAUCUAACAAAAAAGACAAAUCUGCCACAAAGCUUGAGAGCAUCUUCGGAUGCAGAGGCGGCAGCCUUCGGUGGCGCGAUAGUGCCAACGUUCUCAACUAUGACAUGCAAAUCGCGUGCUCCGUUGAAUGGAGUUUAUCCUG, the “polymerase ribozyme fitness (log ratio)” value rises from ≤ -4.2 to -3.57.

GGAUCUUCUCGAUCUAACAAAAAAGACAAAUCUGCCACAAAGCUUGAGAGCAUCUUCGGAUGCAGAGGCGGCAGCCUUCGGUGGCGCGAUAGUGCCAACGUUCUCAACUAUGACACGCAAAACGCGUGCUCCGUUGAAUGAAGUUUAUCAUG and GGAUCUUCUCGAUCUAACAAAAAAGACAAAUCUGCCACAAAGCUUGAGAGCAUCUUCGGAUGCAGAGGCGGCAGCCUUCGGUGGCGCGAUAGUGCCAAGGUUCUCAACUAUGACACGCAAAACGCGUGCUCCGUUAAAUGGAGUGUAUCAUG are within 0.2 log units of each other in “polymerase ribozyme fitness (log ratio)” value: -1.7 for the first, -1.59 for the second.

First: GGAUCUUCUCGAUCUAACAAAAAAGACAAAUCUGCCACAAAGCUUGAGAGCAUCUUCGGAUGCAGAGGCGGCAGCCUUCGGUGGCGCGAUAGUGCCAACGUUCUCAACUAUGACACGCAAAACGCGUGCUCCUUUGAAUGGAGUUUAUCAUG
Second: GGAUCUUCUCGAUCUAACAAAAAAGACAAAUCUGCCACAAAGCUUGAGAGCAUCUUCGGAUGCAGAGGCGGCAGCCUUCGGUGGCGCGAUAGUGCCAACGUUCUCAACUAUGACACGCAAAACGCGUGCUCCGUUGAAUGGAGUUUAUAAUG
The “polymerase ribozyme fitness (log ratio)” value of the first is higher: -3.7 for the first, -4.05 for the second.

GGAUCUUCUCGAUCUAACAAAAAAGACAAAUCUGCCACAAAGCUUGAGAGCAUCUUCGGAUGCAGAGGCGGCAGCCUUCGGUGGCGCGAUAGUGCCAACGUUCUCAACUAUGACACGCAAAACGCGUGCUCCGUUGAAUGGAGUUGAUCAUG and GGAUCUUCUCGAUCUAACAAAAAAGACAAAUCUGCCACAAAGCUUGAGAGCAUCUUCGGAUGCAGAGGCGGCAGCCUUCGGUGGCGCGAUAGUGCCAACGUUCUCAACUAUGACACGCAAAACGCGUGCUCCGUUGAAUGGAGUUAAUCAUG are within 0.2 log units of each other in “polymerase ribozyme fitness (log ratio)” value: -1.47 for the first, -1.46 for the second.

Compared with GGAUCUUCUCGAUCUAACAAAAAAGACAAAUCUGCCACAAAGCUUGAGAGCAUCUUCGGAUGCAGAGGCGGCAGCCUUCGGUGGCGCGAUAGUGCCAACGUUCUCAACUAUGACACGCAAAACGUGUGCUCCGUUGAAUGGAGUUUAUCAUG, GGAUCUUCUCGAUCUAACAAAAAAGACAAAUCUGCCACAAAGCUUGAGAGCAUCUUCGGAUGCAGAGGCGGCAGCCUUCGGUGGCGCGAUAGUGCCAAAGUUCUCAACUAUGACACGCAAAACGCGUCCUCCGUUGAAUGGAGUUUAUCAUG is lower in “polymerase ribozyme fitness (log ratio)” value: -1.43 for the first, ≤ -4.2 for the second.

First: GGAUCUUCUCGAUCUAACAAAAAAGACAAAUCUGCCACAAAGCUUGAGAGCAUCUUCGGAUGCAGAGGCGGCAGCCUUCGGUGGCGCGAUAGUGCCAACGUUCUCAACUAUGACACGAAAAACGCGUGCUCCGUUGAAUGGAGGUUAUCAUG
Second: GGAUCUUCUCGAUCUAACAAAAAAGACAAAUCUGCCACAAAGCUUGAGAGCAUCUUCGGAUGCAGAGGCGGCAGCCUUCGGUGGCGCGAUAGUGCCAACGUUCUCAACUAUGACAUGCAAAACGCGUGCUCCGUUGAAUGAAGUUUAUCAUG
The “polymerase ribozyme fitness (log ratio)” value of the first is lower: -1.06 for the first, -0.0845 for the second.

First: GGAUCUUCUCGAUCUAACAAAAAAGACAAAUCUGCCACAAAGCUUGAGAGCAUCUUCGGAUGCAGAGGCGGCAGCCUUCGGUGGCGCGAUAGUGCCAACGUUCUCAACUAUGACACGCAAAACGCGUUCUCCGUUGAAUGGAGUUUAUCAUG
Second: GGAUCUUCUCGAUCUAACAAAAAAGACAAAUCUGCCACAAAGCUUGAGAGCAUCUUCGGAUGCAGAGGCGGCAGCCUUCGGUGGCGCGAUAGUGCCAACGUUCUCAACUAUGACACGCAAAACGCGUCCUCCGUUGAAUGGAGUUUAUCAUG
The “polymerase ribozyme fitness (log ratio)” value of the first is lower: -3.6 for the first, -3.31 for the second.

Compared with GGAUCUUCUCGAUCUAACAAAAAAGACAAAUCUGCCACAAAGCUUGAGAGCAUCUUCGGAUGCAGAGGCGGCAGCCUUCGGUGGCGCGAUAGUGCCAAUGUUCUCAACUAUGAGACGCAAAACGCGUGCUCCGUUGAAUGGAGUUUAUCAUG, GGAUCUUCUCGAUCUAACAAAAAAGACAAAUCUGCCACAAAGCUUGAGAGCAUCUUCGGAUGCAGAGGCGGCAGCCUUCGGUGGCGCGAUAGUGCCAACGUUCUCAACUAUGACACGCAAAACGCGUGCUCCGUUGAAUGGAGUUUAUCAUA is higher in “polymerase ribozyme fitness (log ratio)” value: -3.73 for the first, -3.11 for the second.

For GGAUCUUCUCGAUCUAACAAAAAAGACAAAUCUGCCACAAAGCUUGAGAGCAUCUUCGGAUGCAGAGGCGGCAGCCUUCGGUGGCGCGAUAGUGCCAACGUUCUCAACUAUGACACGCAAAACGCGUGCUCCGUUGAAUGGAGUUUAUCAUU, the “polymerase ribozyme fitness (log ratio)” value was -3.49.
